Assay results: US20090162360A1 (Hoffmann-La Roche, published 2009)

B1: monospecific, bivalent <ANGPT2> wildtype antibody (antibody, V domains shown)
VH: EVQLVQSGGGVVQPGRSLRLSCAASGFTFSSYGMHWVRQAPGKGLEWVSYISSSGSTIYYADSVKGRFTISRDNAKNSLYLQMNSLRAEDTAVYYCARDLLDYDILTGYGYWGQGTLVTVSS
VL: not shown
notes: Human IgG1/kappa antibody described in WO 2006/045049; also called wildtype <ANGPT2> antibody; <Ang-2> control antibody
B2: wildtype <IGF-1R> antibody (antibody, V domains shown)
VH: QVELVESGGGVVQPGRSQRLSCAASGFTFSSYGMHWVRQAPGKGLEWVAIIWFDGSSTYYADSVRGRFTISRDNSKNTLYLQMNSLRAEDTAVYFCARELGRRYFDLWGRGTLVSVSS
VL: EIVLTQSPATLSLSPGERATLSCRASQSVSSYLAWYQQKPGQAPRLLIYDASKRATGIPARFSGSGSGTDFTLTISSLEPEDFAVYYCQQRSKWPPWTFGQGTKVESKR
notes: Human IgG1/kappa antibody described in WO 2005/005635; also called <IGF-1R> wildtype antibody; original wildtype <IGF-1R> antibody

Experiments:
[1] = biological target: T1, recombinant human IGF-1R on I24 cells (human, UniProt P08069 31-1367); experiment: cellular FACS IGF-1R-ANGPT2 bridging assay on I24 cells with 2 µg/mL hANGPT2, detection <ANGPT2>mIgG1-Biotin + Streptavidin-PE
T1 construct: whole, on cells; also called IGF-1R in I24 cells; I24 IGF-1R expressing cells (NIH3T3 cells expressing recombinant human IGF-1R)
Experimental: (§1) The assay principle is depicted in FIG. 10.
(§2) Briefly, 5×10E5 I24 cells per FACS tube were incubated with total purified antibody mix and incubated on ice for 1 h (titration 160 μg/ml mix). The respective purified antibodies wildtype <IGF-1R> and <ANGPT2> were applied to the I24 cells as controls. Unbound antibody was washed away with 4 ml ice cold PBS (Gibco)+2% FCS (Gibco), cells were centrifuged (5 min at 400 g) and bound bispecific antibody was detected with 50 μl 2 μg/mL human ANGPT2 (R&D Systems) for 1 h on ice. Subsequently, unbound ANGPT2 was washed away once or twice with 4 ml ice cold PBS (Gibco)+2% FCS (Gibco), cells were centrifuged (5 min at 400 g) and bound ANGPT2 was detected with 50 μl 5 μg/mL <ANGPT2>mIgG1-Biotin antibody (BAM0981, R&D Systems) for 45 min on ice; alternatively, cells were incubated with 50 μl 5 μg/mL mIgG1-Biotin-Isotype control (R&D Systems). Unbound detection antibody was washed away with 4 ml ice cold PBS (Gibco)+2% FCS (Gibco), cells were centrifuged (5 min at 400 g) and bound detection antibody was detected with 50 μl 1:400 Streptavidin-PE conjugate (Invitrogen/Zymed) for 45 min on ice protected from light. Unbound Streptavidin-PE conjugate was washed away with 4 ml ice cold PBS+2% FCS. […]

[2] = biological target: T2, human ANGPT2 (R&D Systems) (human, UniProt O15123 19-496, limits assumed); experiment: as above
T2 construct: also called hANGPT2; Ang-2
T2 sequence (looked up): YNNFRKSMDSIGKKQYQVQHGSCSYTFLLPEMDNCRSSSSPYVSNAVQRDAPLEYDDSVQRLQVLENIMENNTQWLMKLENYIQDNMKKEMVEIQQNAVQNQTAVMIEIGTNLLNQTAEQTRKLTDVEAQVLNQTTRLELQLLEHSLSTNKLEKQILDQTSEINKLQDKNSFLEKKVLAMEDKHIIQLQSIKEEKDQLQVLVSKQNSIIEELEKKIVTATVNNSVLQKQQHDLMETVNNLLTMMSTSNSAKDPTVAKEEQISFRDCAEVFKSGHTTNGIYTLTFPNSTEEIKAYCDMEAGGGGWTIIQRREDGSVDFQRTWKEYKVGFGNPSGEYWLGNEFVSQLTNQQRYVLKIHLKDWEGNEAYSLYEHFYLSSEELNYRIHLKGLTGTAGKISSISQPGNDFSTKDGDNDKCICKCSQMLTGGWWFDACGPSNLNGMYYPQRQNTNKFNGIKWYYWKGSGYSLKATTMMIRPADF
Experimental: as §1, §2

Binder | binding result [1] | binding result [2]
B1 | no binding | 
B2 |  | no binding
